Four molecules from publication PMC2172161 (The Journal of Cell Biology, 2004) can be followed below.

Data set [1] deals with the molecule itself. Kind of data set: fluorescence microscopy of purified complexes on slides.
The target of a further data set is T1, GST-Cla4 (S. cerevisiae, UniProt P48562 1-842).
T1 sequence: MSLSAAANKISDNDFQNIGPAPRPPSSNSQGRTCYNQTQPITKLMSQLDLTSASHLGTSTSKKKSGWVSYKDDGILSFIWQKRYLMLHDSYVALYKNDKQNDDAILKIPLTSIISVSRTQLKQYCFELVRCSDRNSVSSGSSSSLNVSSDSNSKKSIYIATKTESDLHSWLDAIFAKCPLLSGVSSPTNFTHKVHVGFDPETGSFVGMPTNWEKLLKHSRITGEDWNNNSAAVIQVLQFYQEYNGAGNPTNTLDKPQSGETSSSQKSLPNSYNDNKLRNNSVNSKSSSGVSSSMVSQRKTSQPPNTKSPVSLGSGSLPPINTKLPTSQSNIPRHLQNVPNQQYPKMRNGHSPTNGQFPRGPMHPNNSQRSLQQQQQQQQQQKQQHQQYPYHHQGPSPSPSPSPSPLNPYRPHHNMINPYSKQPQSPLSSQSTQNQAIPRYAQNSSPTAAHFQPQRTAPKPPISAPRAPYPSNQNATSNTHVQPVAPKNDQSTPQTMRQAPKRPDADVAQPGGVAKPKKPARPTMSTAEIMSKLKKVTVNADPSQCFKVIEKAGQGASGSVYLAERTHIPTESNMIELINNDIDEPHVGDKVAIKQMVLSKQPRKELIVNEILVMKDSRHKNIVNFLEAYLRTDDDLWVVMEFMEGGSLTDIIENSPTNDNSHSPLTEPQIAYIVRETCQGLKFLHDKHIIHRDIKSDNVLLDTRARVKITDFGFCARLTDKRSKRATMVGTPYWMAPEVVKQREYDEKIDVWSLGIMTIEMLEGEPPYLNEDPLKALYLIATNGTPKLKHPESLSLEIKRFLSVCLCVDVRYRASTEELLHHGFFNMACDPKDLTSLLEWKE
Kind of data set: pull-down.

Positions count from the first letter of the chain named. Numbers in names are those of the source.

B1: His6Cdc12–Cdc3–Cdc10–Cdc11 complex (complex)
chain 1: MSAATATAAPVPPPVGISNLPNQRYKIVNEEGGTFTVMLCGESGLGKTTFINTLFQTVLKRADGQQHRQEPIRKTVEIDITRALLEEKHFELRVNVIDTPGFGDNVNNNKAWQPLVDFIDDQHDSYMRQEQQPYRTKKFDLRVHAVLYFIRPTGHGLKPIDIETMKRLSTRANLIPVIAKADTLTAQELQQFKSRIRQVIEAQEIRIFTPPLDADSKEDAKSGSNPDSAAVEHARQLIEAMPFAIVGSEKKFDNGQGTQVVARKYPWGLVEIENDSHCDFRKLRALLLRTYLLDLISTTQEMHYETYRRLRLEGHENTGEGNEDFTLPAIAPARKLSHNPRYKEEENALKKYFTDQVKAEEQRFRQWEQNIVNERIRLNGDLEEIQGKVKKLEEQVKSLQVKKSHLK
chain 2: MSLKEEQVSIKQDPEQEERQHDQFNDVQIKQESQDHDGVDSQYTNGTQNDDSERFEAAESDVKVEPGLGMGITSSQSEKGQVLPDQPEIKFIRRQINGYVGFANLPKQWHRRSIKNGFSFNLLCVGPDGIGKTTLMKTLFNNDDIEANLVKDYEEELANDQEEEEGQGEGHENQSQEQRHKVKIKSYESVIEENGVKLNLNVIDTEGFGDFLNNDQKSWDPIIKEIDSRFDQYLDAENKINRHSINDKRIHACLYFIEPTGHYLKPLDLKFMQSVYEKCNLIPVIAKSDILTDEEILSFKKTIMNQLIQSNIELFKPPIYSNDDAENSHLSERLFSSLPYAVIGSNDIVENYSGNQVRGRSYPWGVIEVDNDNHSDFNLLKNLLIKQFMEELKERTSKILYENYRSSKLAKLGIKQDNSVFKEFDPISKQQEEKTLHEAKLAKLEIEMKTVFQQKVSEKEKKLQKSETELFARHKEMKEKLTKQLKALEDKKKQLELSINSASPNVNHSPVPTKKKGFLR
chain 3: MDPLSSVQPASYVGFDTITNQIEHRLLKKGFQFNIMVVGQSGLGKSTLINTLFASHLIDSATGDDISALPVTKTTEMKISTHTLVEDRVRLNINVIDTPGFGDFIDNSKAWEPIVKYIKEQHSQYLRKELTAQRERFITDTRVHAILYFLQPNGKELSRLDVEALKRLTEIANVIPVIGKSDTLTLDERTEFRELIQNEFEKYNFKIYPYDSEELTDEELELNRSVRSIIPFAVVGSENEIEINGETFRGRKTRWSAINVEDINQCDFVYLREFLIRTHLQDLIETTSYIHYEGFRARQLIALKENANSRSSAHMSSNAIQR
chain 4: MSGIIDASSALRKRKHLKRGITFTVMIVGQSGSGRSTFINTLCGQQVVDTSTTILLPTDTSTEIDLQLREETVELEDDEGVKIQLNIIDTPGFGDSLDNSPSFEIISDYIRHQYDEILLEESRVRRNPRFKDGRVHCCLYLINPTGHGLKEIDVEFIRQLGSLVNIIPVISKSDSLTRDELKLNKKLIMEDIDRWNLPIYNFPFDEDEISDEDYETNMYLRTLLPFAIIGSNEVYEMGGDVGTIRGRKYPWGILDVEDSSISDFVILRNALLISHLHDLKNYTHEILYERYRTEALSGESVAAESIRPNLTKLNGSSSSSTTTRRNTNPFKQSNNINNDVLNPASDMHGQSTGENNETYMTREEQIRLEEERLKAFEERVQQELLLKRQELLQREKELREIEARLEKEAKIKQEE
In the case of B1, the binding result in data set [1] is given as “binds”.

B2: His6-Cdc3 (natural protein)
chain: B1 chain 2
Turning to B2, the binding result with GST-Cla4 was “binds”.

B3: Heterotetrameric complex containing just Cdc12(T48N), but wild-type Cdc3, Cdc10, and Cdc11 (complex)
chain 1: B1 chain 1 with T48N
chain 2: B1 chain 2
chain 3: B1 chain 3
chain 4: B1 chain 4
As to B3, the binding result in data set [1] is reported as “binds”.

B4: His6-Cdc10 (natural protein)
chain: B1 chain 3
With B4, the binding result in the data set with GST-Cla4 is recorded as “binds”.
